# Source: PMC314469, “Protein Interaction Networks by Proteome Peptide Scanning” (PLoS Biology, 2004)
# T1: Boi1 SH3 (BOI1_YEAST), P38041
# T1 chain: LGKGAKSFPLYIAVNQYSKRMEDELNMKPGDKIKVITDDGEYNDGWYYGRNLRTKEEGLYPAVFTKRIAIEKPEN
# T2: Boi2 SH3 (BOI2_YEAST), P39969
# T2 chain: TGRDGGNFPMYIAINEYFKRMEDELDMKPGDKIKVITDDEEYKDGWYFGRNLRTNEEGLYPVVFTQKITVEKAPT
# T3: Yfr024 SH3 (LSB3_YEAST), P43603
# T3 chain: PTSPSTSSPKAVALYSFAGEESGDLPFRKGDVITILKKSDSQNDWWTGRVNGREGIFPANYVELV
# T4: Yhr016c SH3 (YSC84_YEAST), P32793
# T4 chain: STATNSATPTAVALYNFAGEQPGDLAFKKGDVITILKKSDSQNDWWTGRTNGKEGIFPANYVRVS
# T5: Rvs167 SH3 (RV167_YEAST), P39743
# T5 chain: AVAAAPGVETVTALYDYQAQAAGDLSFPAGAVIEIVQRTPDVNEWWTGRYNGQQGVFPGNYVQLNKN
# Tests used:
# Assay in all cases: SPOT array
# [1] = target: T1, Boi1 SH3 (BOI1_YEAST), P38041
# [2] = target: T2, Boi2 SH3 (BOI2_YEAST), P39969
# [3] = target: T3, Yfr024 SH3 (LSB3_YEAST), P43603
# [4] = target: T4, Yhr016c SH3 (YSC84_YEAST), P32793
# [5] = target: T5, Rvs167 SH3 (RV167_YEAST), P39743
Binder,"normalised SPOT signal, Boehringer light units (BLU); mean over the file's lines of this peptide [1]","normalised SPOT signal, Boehringer light units (BLU); mean over the file's lines of this peptide [2]","normalised SPOT signal, Boehringer light units (BLU); mean over the file's lines of this peptide [3]","normalised SPOT signal, Boehringer light units (BLU); mean over the file's lines of this peptide [4]","normalised SPOT signal, Boehringer light units (BLU); mean over the file's lines of this peptide [5]"
DERPFRPKRTSRSA [YGL165C 149-162],632,169,7440,992,111
DFTPVEPSKMREYI [YBR202W 629-642],64.2,59.7,15.3,179,277
DDAPATPPRPLKRK [YJL194W 18-31],242,101,26500,13400,4430
DFRPRMPKRQRIPP [YMR125W 18-31],776,96.7,835,211,87.3
DLAPKWPKKTVSNE [YPL175W 432-445],48.2,14.6,1590,110,7.2
DIHPSLPVRTRFAP [YOL033W 38-51],6780,30.2,24600,5090,943
DHKPENPIRTFKDL [YBL042C 90-103],167,122,238,175,120
DETPFFPDKIQKSF [YPR060C 81-94],37.6,16.5,164,0,23.6
SLGPLDPLKEISDL [YLR330W 177-190],103,42.4,13.6,206,8.3
SNEPHLPPKWVQRS [YLR318W 152-165],120,9.7,2740,84,4.1
DDTPSIPSKISSKS [YBL034C 1313-1326],63.8,115,124,188,247
SILPSTPTRPLSQS [YPL202C 314-327],44.6,19.1,20300,20300,196
DKLPEGPVKSLEGA [YNL134C 130-143],35.5,73.3,87.8,89.5,55.7
DELPSPPLRMVHID [YER152C 237-250],128,28.3,7450,6740,124
DGRPHSPLRARSAT [YFL007W 51-64],1690,21.9,1500,193,75.7
DESPIDPSKAPKVP [YGR130C 350-363],110,11.7,0,120,0
SREPEVPQRLLTLI [YCR095C 250-263],60,67.2,1140,176,42.9
SILPAFPSKSSNEQ [YDR403W 216-229],131,25.1,441,108,68.1
SQRPGSPGRYKLVR [YER025W 174-187],123,51.1,634,202,94
SNPPTDPGRIPMSE [YKR054C 2535-2548],23.4,56.4,22.9,259,40.5
DKLPFSPIKEKKLK [YOR335C 774-787],466,39.8,64.1,156,118
DEPPSFPKRWGWLK [YIL067C 85-98],77.3,112,9640,2420,62.6
